Substitutions are numbered along the chain they refer to. Each block holds one binder with its values, some of them ahead of it.
What was measured:
human claudin 9 (CLDN9) = target: T1, human claudin 9 (CLDN9) (human, UniProt O95484 1-217); assay: flow cytometry on HEK293T/human CLDN9 cells (non-specific binding validation)
T1 construct: also called human CLDN9
T1 sequence: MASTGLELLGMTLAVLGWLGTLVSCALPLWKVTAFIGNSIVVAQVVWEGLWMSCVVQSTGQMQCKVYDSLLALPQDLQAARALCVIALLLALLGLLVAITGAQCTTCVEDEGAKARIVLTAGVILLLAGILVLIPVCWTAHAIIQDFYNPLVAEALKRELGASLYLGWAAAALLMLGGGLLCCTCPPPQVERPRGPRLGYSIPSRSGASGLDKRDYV

human claudin 6 (CLDN6) = target: T2, human claudin 6 (CLDN6) (human, UniProt P56747 1-220); assay: flow cytometry on HEK293T/human CLDN6 cells
T2 construct: also called human CLDN6; hCLDN6
T2 sequence: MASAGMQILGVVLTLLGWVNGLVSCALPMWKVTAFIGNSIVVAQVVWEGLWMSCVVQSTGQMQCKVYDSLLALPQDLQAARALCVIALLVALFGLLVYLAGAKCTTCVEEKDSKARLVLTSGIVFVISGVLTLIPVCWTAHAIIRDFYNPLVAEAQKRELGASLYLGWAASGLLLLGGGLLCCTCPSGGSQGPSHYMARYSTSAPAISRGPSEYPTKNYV
Method: For affinity determination, CLDN6 over-expressing HEK293T cells and cancer cell line PA-1 which express high levels of human CLDN6 were used to evaluate the binding activity of BG87P related engineering variants. Live cells were seeded in 96-well plate, and were incubated with a series of dilutions of chBG87P and engineered variants thereof. Goat anti-human IgG was used as second antibody to detect antibody binding to the cell surface. EC50 values for dose-dependent binding to CLDN6 expressing cell lines were determined by fitting the dose-response data to the four-parameter logistic model with GraphPad Prism. Cell binding activity of 1st round of BG87P humanization variants against HEK293T/human CLDN6 were compared to chBG87P and shown in FIG. 1A.

binding result (human claudin 9 (CLDN9)): no binding
B1: BG87P-34 (antibody, V domains shown)
VH: EVQLQESGGGLVQPGGSLRLSCAASGYSFSDYHINWVRQAPGKGLEWVGYIYPGSGHTKYNEKFKGRFTISRDTSSNTAYLQMNSLRAEDTAVYYCARSGIYHYVSSYYFDHWGQGTLVTVSS
VL: DIQMTQSPSSLSASVGDRVTITCKASQDAGSAVAWYQQKPGKAPKLLIYWASTRHTGVPSRFSGSGSGTDFTLTISSLQPEDFATYYCQQYSSYTFGGGTKLEIK
notes: Final lead clone, framework IGHV3-23 and IGKV1-39; also called BG87-34

EC50 (read off the curve) (human claudin 6 (CLDN6)): ~30 nM
B2: BG87P-33 (antibody, V domains shown)
VH: B1 VH with S30T, G49S, S76K
VL: B1 VL with S10T, D70E, E81D, L102V
notes: Framework-swapped variant; also called BG87-33

From US20240301051A1 (BEIGENE SWITZERLAND, published 2024)
